This is an account of results in patent publication US10670612B2, “Immunoassay standards and measurement of clinical biomarkers using intra-assay calibration standards” (Saladax Biomedical, Inc., priority 2010, dated 2020).

The nature of this data set: Dynamic light scattering. The format is physicochemical. The settings on record: phosphate buffer pH 7.4, 25° C. As to the method:
One set was prepared at 1.0 mg/ml, the second set was prepared at 0.10 mg/ml, and stored at room temperature. Peptides were dissolved by vortexing for 1 min, and centrifuged in a microcentrifuge for 5 min at 14,000 rpm, at room temperature. For Aβ42 samples (MSD), vials containing 0.1 mg peptide were suspended in 1.0 ml buffer, and treated as above. A volume (200 μl) of each centrifuged 1.0 mg/ml stock was transferred to a 0.5 ml polypropylene tube, and provided for NMR analysis.
The absorbance spectra of all samples were recorded (220-750 nm) using a NANODROP® ND-1000 instrument, and blanked against the buffer. Dynamic light scattering analysis was conducted on the peptides in a 384 well polystyrene plate (CORNING®, type 3540) with a Wyatt DLS DynaPro plate reader. Data collection and analysis was completed using software from the manufacturer (DYNAMICS, versions 7.0.0.94 and 7.0.1.12). Each peptide was evaluated in triplicate with 30 μl loaded per well, and overlaid with 5 μl mineral oil, to minimize evaporation. Buffer blanks were also included in the analysis for comparison. After loading the plate, a transparent adhesive sealing tape cover was applied to the plate and the plate was centrifuged for 2 min at 1000 rpm. Each sample on the plate was read 30 times, 5 sec per acquisition, maintaining a temperature of 25° C. Data sets were collected on both the 1.0 mg/ml and 0.10 mg/ml samples over the course of 27 days. The adhesive cover was removed to read the samples in the plate reader, and used to cover the plate between readings over the 27 day time course.
FIGS. 7A through 7F show dynamic light scattering data. In FIGS. 7A-F, the full length Aβ42 peptide was subjected to DLS analysis and compared to four representative modified peptides. […] FIG. 7a represents the raw data accumulated for all five peptides. Shown is the intensity autocorrelation versus time. […] FIGS. 7b-7f depict the percent mass versus the radius of the peptides. Monomeric peptides would be represented by a larger percent mass at the smaller radius size.

Ends that are not written are not given here.

Turning to “DAEFRHDSGYEVHHQKEERPIGLMVGGVVIA (not fully specified) [GS#4, native Aβ42 amino acids (1-16)-EERP-native Aβ42 amino acids (32-42)]”, for the setting “DLS Peak 1”, the “% Intensity” value is 3.8%, the “% Mass” value is on record as 97.7%, the “% Pd” value was found to be 3.2% and the Mw-R is on record as 6.0 kDa. The Radius (DLS Peak 1) was found to be 1.3 nm. Further, for the setting “DLS Peak 2”, the “% Intensity” value was 0.6%, the “% Mass” value is on record as 0.2%, the “% Pd” value worked out at 0.0% and the Mw-R came to 225.0 kDa. The same sequence registered a Radius (DLS Peak 2) of 6.0 nm. Further, under “DLS Peak 3”, the “% Intensity” value is listed as 5.2%, the “% Mass” value came to 0.0%, the “% Pd” value came to 4.5% and the Mw-R worked out at 7527.0 kDa. This sequence also gave a Radius (DLS Peak 3) of 27.0 nm. Further, where the note is “DLS Peak 4”, the “% Intensity” value worked out at 25.1%, the “% Mass” value turned out to be 0.2%, the “% Pd” value amounted to 4.3% and the Mw-R was 283287.0 kDa. Under “DLS Peak 4”, this sequence yielded a Radius of 127.0 nm.
